In patent US9394371:

Columns and labels:
[1] = target: T1, AIP-1 (S. aureus I native cyclic signaling peptide) (Staphylococcus aureus); test: competition ELISA on AP4-BSA
[2] = target: T2, AIP-4 (S. aureus IV native cyclic signaling peptide) (Staphylococcus aureus); test: competition ELISA on AP4-BSA
[3] = target: T2, AIP-4 (S. aureus IV native cyclic …); test: cell-based or functional assay
[4] = target: T2, AIP-4 (S. aureus IV native cyclic …); test: competition ELISA on AP4-BSA; remark: listed apart in the source
[5] = target: T1, AIP-1 (S. aureus I native cyclic …); test: competition ELISA on AP1-BSA
[6] = target: T2, AIP-4 (S. aureus IV native cyclic …); test: competition ELISA on AP4-BSA, tested 5 different times

B1: AP4-24H11 (antibody, V domains shown)
VH: EVKPQESGPGLVKPSQSLSLTCTVTGYSITSNYAWNWIRQFPGNKLEWMGFISSYGTTTYNPSLKSRFSITRDTSKNQFFLQLHSVTIEDTGTYFCTREGDYWGQGTTLTVSS
VL: DIVMTQATLSLPVSLGDQASISCRSSQRLVPSNGNIYLHWFLQKPGQSPKLLIYKLSSRFSGVPDRFSGSGSGTDFTLKISRVESEDLGIYFCSQTTHVPYTFGGGTKLEIK
- Kd [1]: 5 µM
- Kd [2]: 0.098 µM
- Real-Time PCR fold-change of eta mRNA in RN4850 [3]: -8.1 fold
- Real-Time PCR fold-change of hla mRNA in RN4850 [3]: -5.2 fold
- Real-Time PCR fold-change of rnaIII mRNA in RN4850 [3]: -77 fold
- Real-Time PCR fold-change of spa mRNA in RN4850 [3]: 5.7 fold
- rnaIII transcriptional level in S. aureus RN4850 during stationary growth phase (RT-PCR) [3]: > 50 fold
- Kd [4]: 0.09 µM

B2: AP1-15B4 (antibody, V domains shown)
VH: EVHLVESGGDLVKPGGSLKLSCAASGFAFSDFAMSWVRQTPEKRLEWVAIIKSDDSYTYYPDSVRDRFTISRDNARNTLYLQMTSLRSEDTALYYCTKIYDAYFYAMDYWGQGTSVTVSS
VL: DIVRTQSPLSLSVSLGDQASISCRSSQSLLHSNGNTYLHWYLQKPGQSPKLLIYKVSNRFSGVPDRFSGSGSGTDFTLKISILEAEDLGIYFCSQSTHFPTFGGGTKLEIK
- Kd [5]: 0.8 µM

B3: AP4-29E10 (antibody, V domains shown)
VH: EVQLQQSGPELEKPGASVKISCKASGHSFTGYNMNWVKQSNDKSLEWIGNIAPYYGVTAYNQKFKGKATLTGDKSSSTAYMQLKSLASEDSAVYYCVLDTSGYASWGQGTLVTVSA
VL: DIVMTQATASLTVSLGQRATISCRASKSVSTSGYSYMHWYQQKPGQPPKLLIYLASNLESGVPARFSGSGSGTDFTLNIHPVEEEDAATYYCQHSREVPYTFGGGTKLELK
- Kd [1]: 3 µM
- Kd [6]: 0.002 to 0.11 µM
- Kd [4]: 0.024 µM
